Measurements reported in paper doi:10.1101/2021.02.11.430706.

Columns and labels:
[1] = biological target: MtCNNMΔC R235L (Methanoculleus thermophilus); experiment: crystal structure
[2] = biological target: MtCNNMΔC_(Δloop) (Methanoculleus thermophilus CNNM, residues 1-322 Δ259-262) (Methanoculleus thermophilus); experiment: crystal structure

stoichiometry N [1]	stoichiometry N [2]	Substance
2	–	MtCNNMΔC R235L (domain or fragment)
–	2	MtCNNMΔC_(Δloop) (Methanoculleus thermophilus CNNM, residues 1-322 Δ259-262) (domain or fragment)
